Data: doi:10.1101/2025.05.29.656919 (bioRxiv, 2025)

Assays:
Assay in all cases: pull-down
[1] = molecular target: T1, Glutathione S-transferase-fused VDAC1 (Arabidopsis, UniProt Q9SRH5 1-276)
T1 sequence (looked up): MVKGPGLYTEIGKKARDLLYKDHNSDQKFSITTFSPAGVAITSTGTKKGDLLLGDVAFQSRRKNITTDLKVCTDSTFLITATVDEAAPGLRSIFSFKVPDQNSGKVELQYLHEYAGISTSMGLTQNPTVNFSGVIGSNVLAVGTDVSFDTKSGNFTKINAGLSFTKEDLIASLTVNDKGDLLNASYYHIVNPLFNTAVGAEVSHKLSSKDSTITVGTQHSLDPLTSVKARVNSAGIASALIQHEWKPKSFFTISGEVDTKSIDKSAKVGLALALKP

[2] = molecular target: T2, Glutathione S-transferase-fused VDAC2 (Arabidopsis, UniProt Q9FJX3 1-276)
T2 sequence (looked up): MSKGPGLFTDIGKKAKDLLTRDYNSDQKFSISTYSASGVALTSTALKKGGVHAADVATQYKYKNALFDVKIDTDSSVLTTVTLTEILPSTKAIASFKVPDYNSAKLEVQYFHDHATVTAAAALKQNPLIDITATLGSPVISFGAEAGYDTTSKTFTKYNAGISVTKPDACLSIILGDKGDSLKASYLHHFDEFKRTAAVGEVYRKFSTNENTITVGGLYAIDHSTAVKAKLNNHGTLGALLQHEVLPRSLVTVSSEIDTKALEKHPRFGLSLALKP

[3] = molecular target: T3, Glutathione S-transferase-fused VDAC3 (Arabidopsis, UniProt Q9SMX3 1-274)
T3 sequence (looked up): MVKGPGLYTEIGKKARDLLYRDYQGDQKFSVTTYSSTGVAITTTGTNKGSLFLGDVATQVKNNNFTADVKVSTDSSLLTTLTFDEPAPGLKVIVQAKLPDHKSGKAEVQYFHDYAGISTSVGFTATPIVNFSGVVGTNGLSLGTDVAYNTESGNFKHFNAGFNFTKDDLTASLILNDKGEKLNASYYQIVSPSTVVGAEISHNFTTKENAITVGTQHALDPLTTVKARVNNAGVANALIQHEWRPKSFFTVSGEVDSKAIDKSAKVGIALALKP

Measured: binding result

B1: 6×His-tagged ATG8e (natural protein, Arabidopsis, UniProt Q8S926 1-118, looked up)
chain: MNKGSIFKMDNDFEKRKAEAGRIREKYPDRIPVIVEKAEKSEVPNIDKKKYLVPSDLTVGQFVYVIRKRIKLSAEKAIFIFVDNVLPPTGELMSSVYEDKKDEDGFLYITYSGENTFG
binds: all assays above

B2: ATG8e with UDS mutation (I78A, F79A, I80A) (natural protein, Arabidopsis, UniProt Q8S926 1-118, looked up)
chain: MNKGSIFKMDNDFEKRKAEAGRIREKYPDRIPVIVEKAEKSEVPNIDKKKYLVPSDLTVGQFVYVIRKRIKLSAEKAAAAFVDNVLPPTGELMSSVYEDKKDEDGFLYITYSGENTFG
binds: all assays above
